± gives the standard deviation of the averaged measurements.
B1: library; a variant is named by its letters at N, in order (parent)
chain: GCUGUCACCGAGAAACUGUGAAGUAUAUCUUAAACCUGGGCACUUAAAAGAUAUAUGGAGUUAGUAGUGCAACCUGCUCGGUCUGAUGAGUCCNNNNNNGGACGAAACAGC

Tests used:
[1] = variants of: B1; test: FACS-Seq fitted mean relative fluorescence mCherry/BFP without ligand (log10 relative fluorescence); HEK293T; ligand: cyclic di-GMP (c-di-GMP-II aptamer); higher = higher reporter protein expression; conditions: ligand present: no
Summary of the method: (§1)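 Fluorescence comes from a normal fit to bin counts, normalized against controls. HEK293T libraries lentivirally given a ribozyme-switch mCherry reporter and an EF1α-BFP marker were enriched, incubated 48 h with or without ligand, and sorted by mCherry/BFP into 6 bins. Bin genomic DNA was PCR-amplified, barcoded and sequenced on MiSeq. The log10(mCherry/BFP) mean was scaled to five spiked-in control ribozymes.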

[2] = variants of: B1; test: normalized RNA/DNA level without ligand (relative to sTRSVctl = 100) (log10 (% of sTRSVctl)); HEK293T; ligand: cyclic di-GMP (c-di-GMP-II aptamer); higher = less ribozyme self-cleavage, higher mRNA level; conditions: reporter: mCherry (pCS4076), ligand present: no
Summary of the method: (§2)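 Ribozyme switch library plasmids linked to reporters were introduced into HEK293T cells at 4 µg per 6-well well, with ligand, if any, added 1 h before. Total RNA was extracted with EDTA 72 h later, reverse-transcribed, amplified, barcoded and sequenced. RNA level was computed from RNA over DNA reads relative to a spiked-in non-cleaving sequence or the top sequences, then scaled and log-transformed. The top set was 25 sequences, values were ×100 and log10, and the cutoff was ≥100 DNA reads.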

[3] = variants of: B1; test: FACS-Seq fitted mean relative fluorescence mCherry/BFP with ligand (log10 relative fluorescence); HEK293T; ligand: cyclic di-GMP (c-di-GMP-II aptamer); ligand concentration (+) FACS-Seq: 1 mM; higher = higher reporter protein expression; conditions: ligand present: yes
Summary of the method: as §1

[4] = variants of: B1; test: normalized RNA/DNA level with ligand (relative to sTRSVctl = 100) (log10 (% of sTRSVctl)); HEK293T; ligand: cyclic di-GMP (c-di-GMP-II aptamer); ligand concentration (+) RNA-Seq: 1 mM; higher = less ribozyme self-cleavage, higher mRNA level; conditions: reporter: mCherry (pCS4076), ligand present: yes
Summary of the method: as §2

Variant | FACS-Seq fitted mean (log10) [1] | normalized RNA/DNA level without ligand (log10) [2] | FACS-Seq fitted mean (log10) [3] | normalized RNA/DNA level with ligand (log10) [4]
CCAUGC | 0.318 ± 0.13 | 1.673 ± 0.0061 | 0.419 ± 0.012 | 1.82 ± 0.11
ACACUA | -0.717 ± 0.027 | 1.44 ± 0.038 | -0.414 ± 0.055 | 1.66 ± 0.15
CCAGAA | -0.598 ± 0.013 | 1.34 ± 0.14 | -0.277 ± 0.015 | 1.58 ± 0.1
CCAGAC | -0.24 ± 0.11 | 1.631 ± 0.0075 | 0.128 ± 0.0098 | 1.83 ± 0.16
GCCCCA | -0.109 ± 0.025 | 1.72 ± 0.024 | 0.138 ± 0.041 | 1.86 ± 0.085
GCCCCU | 0.163 ± 0.17 | 1.761 ± 0.0048 | 0.336 ± 0.019 | 1.89 ± 0.077
GCCACC | -0.0159 ± 0.27 | 1.682 ± 0.011 | 0.0347 ± 0.1 | 1.84 ± 0.095
CCCCAU | -0.0362 ± 0.2 | 1.68 ± 0.022 | 0.163 ± 0.051 | 1.83 ± 0.11
CCCCAC | -0.891 ± 0.018 | 1.75 ± 0.033 | -0.665 ± 0.018 | 1.88 ± 0.097
CCAUUG | -0.474 ± 0.062 | 1.28 ± 0.11 | -0.134 ± 0.034 | 1.55 ± 0.093
CCCAAA | -0.275 ± 0.06 | 1.48 ± 0.062 | 0.0473 ± 0.081 | 1.69 ± 0.1
ACCAUA | -0.294 ± 0.15 | 1.51 ± 0.065 | 0.0129 ± 0.043 | 1.71 ± 0.11
GCACAA | -0.339 ± 0.051 | 1.41 ± 0.051 | 0.0543 ± 0.037 | 1.62 ± 0.11
GCACAU | -0.28 ± 0.043 | 1.47 ± 0.055 | -0.00874 ± 0.0028 | 1.69 ± 0.11
GCACAC | -0.421 ± 0.06 | 1.55 ± 0.034 | 0.00625 ± 0.1 | 1.69 ± 0.13
UCAAUU | -0.69 ± 0.034 | 1.585 ± 0.0066 | -0.175 ± 0.22 | 1.77 ± 0.13
UCAAUA | -0.525 ± 0.048 | 1.4 ± 0.085 | -0.157 ± 0.078 | 1.63 ± 0.089
UCAAUG | -0.476 ± 0.064 | 1.51 ± 0.12 | -0.188 ± 0.01 | 1.78 ± 0.027

Variant | FACS-Seq fitted mean (log10) [1] | normalized RNA/DNA level without ligand (log10) [2] | FACS-Seq fitted mean (log10) [3] | normalized RNA/DNA level with ligand (log10) [4]
UCAUGU | -0.749 ± 0.0092 | 1.63 ± 0.073 | -0.517 ± 0.028 | 1.82 ± 0.077
GCCAUA | 0.0302 ± 0.039 | 1.55 ± 0.05 | 0.269 ± 0.026 | 1.72 ± 0.069
GCCAUU | -0.372 ± 0.0056 | 1.58 ± 0.016 | -0.161 ± 0.13 | 1.78 ± 0.13
CCAGCA | -0.507 ± 0.13 | 1.73 ± 0.021 | -0.329 ± 0.02 | 1.86 ± 0.098
ACCACC | -0.899 ± 0.064 | 1.6 ± 0.088 | -0.618 ± 0.019 | 1.76 ± 0.097
GCAGCU | -0.242 ± 0.076 | 1.65 ± 0.018 | -0.0553 ± 0.039 | 1.78 ± 0.11
ACAGCG | -0.358 ± 0.013 | 1.75 ± 0.0045 | -0.079 ± 0.031 | 1.86 ± 0.1
GCAACA | -0.823 ± 0.12 | 1.55 ± 0.048 | -0.56 ± 0.014 | 1.75 ± 0.12
GAUUAA | -0.0108 ± 0.066 | 1.55 ± 0.057 | 0.211 ± 0.1 | 1.74 ± 0.087
UCAGAU | -0.378 ± 0.029 | 1.49 ± 0.067 | -0.0266 ± 0.08 | 1.67 ± 0.078
UCCAGA | -0.246 ± 0.071 | 1.631 ± 0.014 | 0.0947 ± 0.062 | 1.82 ± 0.081
UCCAGC | -0.739 ± 0.051 | 1.66 ± 0.059 | -0.609 ± 0.015 | 1.84 ± 0.15
CCAGGC | -1.034 ± 0.0013 | 1.636 ± 0.0075 | -0.924 ± 0.11 | 1.76 ± 0.15
GCACGA | -0.471 ± 0.043 | 1.43 ± 0.093 | -0.123 ± 0.049 | 1.65 ± 0.11
GCACUU | -0.492 ± 0.071 | 1.588 ± 0.015 | -0.235 ± 0.081 | 1.8 ± 0.063
GCACUC | -0.286 ± 0.015 | 1.5 ± 0.056 | 0.125 ± 0.0091 | 1.69 ± 0.17
GCACUA | -0.172 ± 0.017 | 1.48 ± 0.023 | 0.225 ± 0.12 | 1.75 ± 0.062

Reference: the supplement of paper PMC6757056
